This note sets out measurements from patent US20220380442A1 (published 2022).

First the molecules themselves.
B1: SNV-30 (antibody, V domains shown)
VH: QLQLQESGSRLVKSSETLSLTCAVSGGAITSGRNTWSWIRQPPGKGLEWIGFIYYSGSTYSNPITYSSPSLKSRVTISLDTSKNQFSLKLNSVTAADTAVYYCARAKPSNLNFYYYGMDVWGQGTTVTVSS
VL: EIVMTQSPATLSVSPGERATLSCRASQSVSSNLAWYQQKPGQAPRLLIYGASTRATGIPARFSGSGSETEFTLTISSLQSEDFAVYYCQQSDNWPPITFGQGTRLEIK
B2: SNV-65 (antibody, V domains shown)
VH: QVQLQESGPGLVKPSQTLSLTCTVSGGSISSGGYFWSWIRQHPGKGLEWIGYIYYSGSTYYNPSLKSRVTISIDTSKIQFSLKLTSVTAADTAVYYCARDVGGFDIWGQGTMVTVSS
VL: DIQMTQSPSSLSASIGDRVTITCQASQDINKYLNWYQQKPGKAPKVLIYDASNLETGVPSRFSGSGSGTDFTFTISSLQPEDVATYYCQQYENLPRTFGQGTKVEIK
B3: SNV-32 (antibody, V domains shown)
VH: QVQLVQSGAEVKKPGSSVKVSCRASGGTFRSYSISWVRQAPGQGLEWMGDIIPIFSTTNYAQKFQGRVTITADEATSTAYMELSSLRSDDTAVYYCARPSNLLNWFDPWGQGTLVTVSS
VL: EIVMTQSPATLSVSPGERATLSCRASQSVNSNLVWYQQKPGQAPRLLIYGASTRATGIPARISGSGSGTEFTLTISSLQSEDFAVYYCQQYDNRPQTFGQGTKVEIK
B4: SNV-68 (antibody, V domains shown)
VH: QVQLQESGPGLVKPSGTLSLTCLVSGGSIGSSHWWSWVRQSPGKGLEWFGEIHHTESTNYNPSLKSRVTITMDKSKNQFYLKLTSVTAADTAVYYCARAGATFAEPFSLWGQGTMVTVSP
VL: DIQMTQSPSTLSASVGDRVTITCRAGQSVTNWLAWYQQKPGKAPKLLIYKASILASGVPSRFSGSGSGTEFTLTISSVQPDDSAVYYCQQYKSHRTFGQGTKVEIK
B5: SNV-57 (antibody, V domains shown)
VH: QVQLVESGGGVVQPGRSLRLSCAASGFTFSSYAMHWVRQAPGKGLEWVALISLDGFNTYYPDSVKGRFTISRDSSKNTLFLQLNSLRIEDTAVYYCVKDRGPTGSGSYGMDVWGQGTTVTVSS
VL: SYELTQPPSVSVSPGQTASITCSGDKLGNKFACWYQQKPGQSPVLVIHQDKKRPSGIPERFSGSNSGNTATLTISGTQAVDEADYYCQAWDSSNVVFGGGTKLTVL
B6: SNV-66 (antibody, V domains shown)
VH: QVRLVESGGGVVQPGRSLRLSCAASGFTFRSYGMHWVRQAPGKGLEWVALISLDGSEKHYADSVKGRLTISRDNSKNMLYLQMNNLRVEDTAVYYCAKDRPYSWRDVLDYWGQGTLVTVSS
VL: DIQMTQSPSSLSASVGDRVTITCRASRDIHTSLNWYQHTPGKAPELLIYAASTLEMGVPSRFSGSGSGTDFTFTISSLQPEDIATYYCQQYDELPLTFGGGTKVEMK
B7: SNV-24 (antibody, V domains shown)
VH: EVQLLESGGGLIQSGGSLRLSCVVSGIDFSNYAMTWVRHAPGKGLEWISTISGSGDTTNYADSAKGRFTISRDNSRNTLFVRINSLRAEDTAIYYCAKTMGPVSGQYAFDIWGQGTKVTVSS
VL: SYELTQPPSVSVSPGQTATITCSGDNLGNKFASWYQQKPGLSPVLVIYQDKKRPSGIPERFSGSNSGNTATLTISGTQAMDEADYFCQAWHSGSVFGGGTKLTVL
B8: SNV-36 (antibody, V domains shown)
VH: QVQLVESGGGVVQPGRSLRLSCAASGFRFSSYAMHWVRQAPGKGLEWVATIWFDGTNEYYGDSAKGRFTISRDNSMSTLYLQMNSLRVEDTAVYYCARPANGYSDYYYGMDVWGQGTTVTVSS
VL: QSALTQPASVSGSPGQSITISCTGTSSDVGTYNLVSWYQQHPGKAPKLMIFEVNKRPSGVSYRFSGSKSGNTASLTISGLQAEDEADYYCCSYADNRTPFLFGTGTKVTVLG
B9: SNV-67 (antibody, V domains shown)
VH: QVQLVQSGAEVKKPGASVRVSCKASGYTFTAYFMNWVRQAPGQGLEWMGRINPISGDTNFAQNFQGRVTMTRDTSITTVYMELNRLTSDDTAVYYCARVRSGYSYIDFWGQGTLVTVAS
VL: SYDLTQPPSVSVSPGQTARITCSGDALSNQYAYWYQQRPGQAPVVVIYKYSERPSGIPERFSGSSSGTTVTLTISGVQAEDEADYYCQSADRLGTYWVFGGGTKLTVL
B10: SNV-50 (antibody, V domains shown)
VH: EMQLLESGGGLIQPGESLRLSCAGSGFTFRNYAMSWVRQAPGKGLQWVSAISASGGITHYADSVKGRFTISRDNSKNTLFLQMNSLRAEDTAVYYCAKGEIMRDTGYHDDAFDVWGQGKMVTVSS
VL: DIQLTQSPSFLSASVGDRVTITCRASQGISSYLVWYQQKPGEAPKLLIYTASTLQSGVPSRFSGSGSGTEFTLTISSLQPEDFATYHCQQVESYPYSFGQGTKLEIK
B11: SNV-39 (antibody, V domains shown)
VH: QEQLEESGGGVVQPGRSLTLSCAASGFTFRSYDMHWVRQAPGKGLEWVALISYDGRNKHYGDSVKGRFTISRDNSKNTLYLHLSSLRAEDTSVYYCARGADNGLFTDSWGQGTLVIVSS
VL: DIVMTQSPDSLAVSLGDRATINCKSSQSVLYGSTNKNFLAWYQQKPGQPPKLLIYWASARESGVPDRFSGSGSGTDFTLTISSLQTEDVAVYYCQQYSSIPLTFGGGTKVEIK
B12: SNV-21 (antibody, V domains shown)
VH: QVQLVESGGGVVQPGRALRLSCAASGFTFSSYGMHWVRQAPGKGLEWVAVVWNDGGNKYYADSVKGRFTISRDNSKNTLYLQMNSLRAEDTAVYFCARDGYYVSSGYHPLRYYYYYMDVWGKGTTVAVSS
VL: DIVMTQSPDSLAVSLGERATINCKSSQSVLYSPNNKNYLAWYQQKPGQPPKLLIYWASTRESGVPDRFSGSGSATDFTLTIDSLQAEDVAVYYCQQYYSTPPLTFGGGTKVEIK
B13: SNV-53 (antibody, V domains shown)
VH: EVQLVQSGAEVKTPGESLKISCKGSGYRFYTYWIAWVRQMPGKGLEWMGIIYPGDSDPRYSPSFQGQVTISADKSISTAYLQWSSLKASDTAMYYCVRVQGTMLDYWGQGTLVTVSS
VL: QSVLTQPPSVSGAPGQSVTISCSGSSSNIGAGYDVHWYQQLLGRAPKLLIHGNSNRPSGVPDRFSGSKSGTSGSLAITGLQSEDEADYYCQSYDISLSGWVFGGGTKLTVL
B14: SNV-3 (antibody, V domains shown)
VH: QVQLQQSGPGLVKPSQTLSLTCAISGDSVSSNSAAWNWIRQSPSRGLEWLGRTYYRSKWYNDYAVSVKSRITINPDTSKNQFSLQMNSVTPEDTAVYYCARDRRKLEPPPFSYYYYGLDVWGQGTTVTVSS
VL: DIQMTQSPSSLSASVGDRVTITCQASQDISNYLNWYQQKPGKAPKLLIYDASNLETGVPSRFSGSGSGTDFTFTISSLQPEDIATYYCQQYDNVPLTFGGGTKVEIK
B15: SNV-45 (antibody, V domains shown)
VH: ELQLVESGGGLIRPGGSLRLSCTAAGFTFSNYNMNWVRQAPGKGLDWVSYISSSGGTTIYADSVKGRFTISRDNAKDSLYLQMNSLRDDDTAIYYCVRGRGQLATHFDYWGQGTLVTVSS
VL: ESVLTQFPDFQSVTPKEKVTITCRASQSIHINLHWYQQKPHQSPKLLIKYASQSIAGVPSRFSGSGSGTEFTLTINGLEAEDAATYYCHQSNSLPWTFGQGTKVEIK
B16: SNV-42 (antibody, V domains shown)
VH: EVQLVESGGGLVQPGGSLRLSCAASGFTFSTYEMNWVRQAPGKGLEWISYIRSSGSTVYYADSVKGRFTISRDNAKNLLYLQMNSLRAGDTAVYYCARIPGGYTGYFDYWGQGALVTVSS
VL: QSVLTQPPSVSGAPGQRVTISCTGSSSNIGAGYYVHWYQQLPGTVPKLLIYGNNNRPSGVPDRFSGSKSGTSASLAITGLQTEDEADYYCQSYDSSLSGWVFGGGTKLTVL
B17: SNV-27 (antibody, V domains shown)
VH: QVQLVQSGAEVKKPGASVRVSCKAYGYSFNDYFMHWVRQAPGQGLEWMGRVKPSTGGTRYAQKFQGRVTMTLDTSTSTAYVELSSLSSDDTAVYFCARKLGPLGDCSSSSCYSALDVWGQGTMVTVSS
VL: DIQMTQSPSTLSASVGDRVTITCRASESISNWLAWYQQKPGKAPKLLISKASSLESGVPSRFSGSGSGTEFTLTIGSLQPDDFATYYCQQYNTYSWTFGQGTKVDIK

In this assay the target is Sin Nombre virus (SNV) glycoproteins Gn and Gc displayed on the surface of Expi293F cells transfected with … (Sin Nombre virus). Description: flow.
What is called EC50 is the midpoint of the concentration-response curve. For B1, the EC50 came out at 5.5 ng/mL.
To B2 belongs 3.4 ng/mL; to B3, 14 ng/mL.
With B4, the response was half-maximal at 6.5 ng/mL (EC50).
To B5 belongs 6 ng/mL; to B6, 7.7 ng/mL.
To B7 belongs 7.2 ng/mL.
Molecule B8 had a concentration for a half-maximal effect (EC50) of 10 ng/mL.
As for B9, a half-maximal response (EC50) required 15 ng/mL.
On to B10, for which the EC50 stood at 5.2 ng/mL.
The molecule B11 returned an EC50 of 14 ng/mL.
As for B12, a half-maximal effect (EC50) was put at 20 ng/mL.
To B13 belongs 3.5 ng/mL; to B14, 5.6 ng/mL.
In the case of B15, a half-maximal response (EC50) required 9.9 ng/mL.
In turn, B16 displayed an EC50 of 5.9 ng/mL.
In turn, B17 showed an EC50 of 11 ng/mL.
